Measured values as given in the supplement of paper PMC5998384.

What was measured:
HeLa Kyoto [1] = experiment: solubility change mitosis vs G1/S (difference of NP-40 vs SDS log2 ratios) (log2 ratio difference); higher = more soluble in mitosis
HeLa Kyoto [2] = experiment: thermal stability score vs G1/S (z-score of summed log2 fold changes over temperatures); higher = more thermally stable than in G1/S
HeLa Kyoto [3] = experiment: solubility in G1/S (NP-40 vs SDS abundance) (log2 ratio); higher = more soluble; conditions: cell cycle stage: G1/S
HeLa Kyoto [4] = experiment: melting temperature (median over replicates), in situ; higher = more thermally stable
[5] = cell cycle stage: early G1 (4.5 h after nocodazole release)
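Throughout, for melting temperature (median over replicates), in situ: HeLa Kyoto cells synchronized by double thymidine or nocodazole block, proteins quantified by TMT10plex mass spectrometry, three independent biological replicates.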
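Throughout, for solubility change mitosis vs G1/S (difference of NP-40 vs SDS log2 ratios): synchronized HeLa Kyoto cells (double thymidine block for G1/S, nocodazole release for mitosis), protein amounts in NP-40 versus SDS lysates quantified by mass spectrometry, three biological replicates.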
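Throughout, for solubility in G1/S (NP-40 vs SDS abundance): HeLa Kyoto cells arrested at G1/S by double thymidine block, proteins quantified by TMT10plex mass spectrometry in mild NP-40 versus SDS extracts, three biological replicates.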
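Throughout, for thermal stability score vs G1/S (z-score of summed log2 fold changes over temperatures): synchronized HeLa Kyoto cells, proteins quantified by TMT10plex mass spectrometry, three biological replicates, mitosis taken 0.5 h after nocodazole release, G1/S directly after double thymidine block.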

Sequence of THBS1 (chain, as listed by the source): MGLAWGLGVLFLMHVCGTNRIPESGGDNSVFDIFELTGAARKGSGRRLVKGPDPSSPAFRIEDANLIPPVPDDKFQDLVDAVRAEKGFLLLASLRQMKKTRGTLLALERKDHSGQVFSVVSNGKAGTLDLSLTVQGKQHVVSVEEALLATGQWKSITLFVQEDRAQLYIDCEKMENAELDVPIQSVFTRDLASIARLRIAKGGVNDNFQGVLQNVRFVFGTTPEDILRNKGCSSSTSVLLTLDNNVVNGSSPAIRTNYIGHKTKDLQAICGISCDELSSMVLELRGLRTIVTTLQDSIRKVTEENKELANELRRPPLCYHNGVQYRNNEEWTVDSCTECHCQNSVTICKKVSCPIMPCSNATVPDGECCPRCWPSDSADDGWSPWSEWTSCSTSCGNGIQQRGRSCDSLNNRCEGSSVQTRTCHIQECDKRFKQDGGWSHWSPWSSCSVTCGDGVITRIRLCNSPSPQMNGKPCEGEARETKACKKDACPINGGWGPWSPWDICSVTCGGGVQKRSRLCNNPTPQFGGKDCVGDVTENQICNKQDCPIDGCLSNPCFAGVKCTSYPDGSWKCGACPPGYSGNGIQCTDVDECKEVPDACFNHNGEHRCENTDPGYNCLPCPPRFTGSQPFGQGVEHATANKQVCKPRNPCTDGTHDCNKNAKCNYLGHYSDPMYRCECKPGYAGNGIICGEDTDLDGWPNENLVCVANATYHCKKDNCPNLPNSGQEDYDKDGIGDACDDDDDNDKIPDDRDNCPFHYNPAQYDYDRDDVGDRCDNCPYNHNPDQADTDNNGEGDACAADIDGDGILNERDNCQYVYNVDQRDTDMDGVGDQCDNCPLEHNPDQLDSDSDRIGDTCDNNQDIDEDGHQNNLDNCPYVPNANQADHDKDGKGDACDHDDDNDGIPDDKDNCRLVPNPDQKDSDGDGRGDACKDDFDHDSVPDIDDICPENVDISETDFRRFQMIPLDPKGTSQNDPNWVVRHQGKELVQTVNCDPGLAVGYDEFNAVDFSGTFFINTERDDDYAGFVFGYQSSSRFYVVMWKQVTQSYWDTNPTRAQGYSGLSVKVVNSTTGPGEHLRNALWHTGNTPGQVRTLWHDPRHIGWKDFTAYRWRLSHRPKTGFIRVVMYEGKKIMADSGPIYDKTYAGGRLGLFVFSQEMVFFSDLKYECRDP

Substance | solubility change mitosis (log2) (HeLa Kyoto [1]) | thermal stability score (HeLa Kyoto [2]; [5]) | thermal stability score (HeLa Kyoto [2]; cell cycle stage: mitosis) | solubility in G1/S (log2) (HeLa Kyoto [3]) | melting temperature (HeLa Kyoto [4]; cell cycle stage: G1/S) | melting temperature (HeLa Kyoto [4]; cell cycle stage: mitosis)
ABCA2 | -0.105 | 0.174 | -0.253 | 0.0925 |  | 
MERGKMAEAESLETAAEHERILREIESTDTACIGPTLRSVYDGEEHGRFMEKLETRIRNHDREIEKMCNFHYQGFVDSITELLKVRGEAQKLKNQVTDTNRKLQHEGKELVIAMEELKQCRLQQRNISATVDKLMLCLPVLEMYSKLRDQMKTKRHYPALKTLEHLEHTYLPQVSHYRFCKVMVDNIPKLREEIKDVSMSDLKDFLESIRKHSDKIGETAMKQAQQQRNLDNIVLQQPRIGSKRKSKKDAYIIFDTEIESTSPKSEQDSGILDVEDEEDDEEVPGAQDLVDFSPVYRCLHIYSVLGARETFENYYRKQRRKQARLVLQPPSNMHETLDGYRKYFNQIVGFFVVEDHILHTTQGLVNRAYIDELWEMALSKTIAALRTHSSYCSDPNLVLDLKNLIVLFADTLQVYGFPVNQLFDMLLEIRDQYSETLLKKWAGIFRNILDSDNYSPIPVTSEEMYKKVVGQFPFQDIELEKQPFPKKFPFSEFVPKVYNQIKEFIYACLKFSEDLHLSSTEVDDMIRKSTNLLLTRTLSNSLQNVIKRKNIGLTELVQIIINTTHLEKSCKYLEEFITNITNVLPETVHTTKLYGTTTFKDARHAAEEEIYTNLNQKIDQFLQLADYDWMTGDLGNKASDYLVDLIAFLRSTFAVFTHLPGKVAQTACMSACKHLATSLMQLLLEAEVRQLTLGALQQFNLDVRECEQFARSGPVPGFQEDTLQLAFIDLRQLLDLFIQWDWSTYLADYGQPNCKYLRVNPVTALTLLEKMKDTSRKNNMFAQFRKNERDKQKLIDTVAKQLRGLISSHHS [EXOC6B] | -0.0208 | 0.0917 | 0.56 | -0.17 |  | 
THBS1 | 0.0125 | 4.61 | 5.07 | -0.19 |  | 
MLPFLLATLGTTALNNSNPKDYCYSARIRSTVLQGLPFGGVPTVLALDFMCFLALLFLFSILRKVAWDYGRLALVTDADRLRRQERDRVEQEYVASAMHGDSHDRYERLTSVSSSVDFDQRDNGFCSWLTAIFRIKDDEIRDKCGGDAVHYLSFQRHIIGLLVVVGVLSVGIVLPVNFSGDLLENNAYSFGRTTIANLKSGNNLLWLHTSFAFLYLLLTVYSMRRHTSKMRYKEDDLVKRTLFINGISKYAESEKIKKHFEEAYPNCTVLEARPCYNVARLMFLDAERKKAERGKLYFTNLQSKENVPTMINPKPCGHLCCCVVRGCEQVEAIEYYTKLEQKLKEDYKREKEKVNEKPLGMAFVTFHNETITAIILKDFNVCKCQGCTCRGEPRPSSCSESLHISNWTVSYAPDPQNIYWEHLSIRGFIWWLRCLVINVVLFILLFFLTTPAIIITTMDKFNVTKPVEYLNNPIITQFFPTLLLWCFSALLPTIVYYSAFFEAHWTRSGENRTTMHKCYTFLIFMVLLLPSLGLSSLDLFFRWLFDKKFLAEAAIRFECVFLPDNGAFFVNYVIASAFIGNAMDLLRIPGLLMYMIRLCLARSAAERRNVKRHQAYEFQFGAAYAWMMCVFTVVMTYSITCPIIVPFGLMYMLLKHLVDRYNLYYAYLPAKLDKKIHSGAVNQVVAAPILCLFWLLFFSTMRTGFLAPTSMFTFVVLVITIVICLCHVCFGHFKYLSAHNYKIEHTETDTVDPRSNGRPPTAAAVPKSAKYIAQVLQDSEVDGDGDGAPGSSGDEPPSSSSQDEELLMPPDALTDTDFQSCEDSLIENEIHQ [TMEM63B] | -0.109 | -2.78 | -2.41 | -0.0696 |  | 
MQTSEREGSGPELSPSVMPEAPLESPPFPTKSPAFDLFNLVLSYKRLEIYLEPLKDAGDGVRYLLRWQMPLCSLLTCLGLNVLFLTLNEGAWYSVGALMISVPALLGYLQEVCRARLPDSELMRRKYHSVRQEDLQRGRLSRPEAVAEVKSFLIQLEAFLSRLCCTCEAAYRVLHWENPVVSSQFYGALLGTVCMLYLLPLCWVLTLLNSTLFLGNVEFFRVVSEYRASLQQRMNPKQEEHAFESPPPPDVGGKDGLMDSTPALTPTEDLTPGSVEEAEEAEPDEEFKDAIEETHLVVLEDDEGAPCPAEDELALQDNGFLSKNEVLRSKVSRLTERLRKRYPTNNFGNCTGCSATFSVLKKRRSCSNCGNSFCSRCCSFKVPKSSMGATAPEAQRETVFVCASCNQTLSK [ZFYVE27] | -0.198 | 0.202 | -1.24 | -0.196 |  | 
MAKQLQARRLDGIDYNPWVEFVKLASEHDVVNLGQGFPDFPPPDFAVEAFQHAVSGDFMLNQYTKTFGYPPLTKILASFFGELLGQEIDPLRNVLVTVGGYGALFTAFQALVDEGDEVIIIEPFFDCYEPMTMMAGGRPVFVSLKPGPIQNGELGSSSNWQLDPMELAGKFTSRTKALVLNTPNNPLGKVFSREELELVASLCQQHDVVCITDEVYQWMVYDGHQHISIASLPGMWERTLTIGSAGKTFSATGWKVGWVLGPDHIMKHLRTVHQNSVFHCPTQSQAAVAESFEREQLLFRQPSSYFVQFPQAMQRCRDHMIRSLQSVGLKPIIPQGSYFLITDISDFKRKMPDLPGAVDEPYDRRFVKWMIKNKGLVAIPVSIFYSVPHQKHFDHYIRFCFVKDEATLQAMDEKLRKWKVEL [CCBL1] | -0.211 | 0.0443 | -0.361 | 0.0856 |  | 
MTTEQRRSLQAFQDYIRKTLDPTYILSYMAPWFREEEVQYIQAEKNNKGPMEAATLFLKFLLELQEEGWFRGFLDALDHAGYSGLYEAIESWDFKKIEKLEEYRLLLKRLQPEFKTRIIPTDIISDLSECLINQECEEILQICSTKGMMAGAEKLVECLLRSDKENWPKTLKLALEKERNKFSELWIVEKGIKDVETEDLEDKMETSDIQIFYQEDPECQNLSENSCPPSEVSDTNLYSPFKPRNYQLELALPAMKGKNTIICAPTGCGKTFVSLLICEHHLKKFPQGQKGKVVFFANQIPVYEQQKSVFSKYFERHGYRVTGISGATAENVPVEQIVENNDIIILTPQILVNNLKKGTIPSLSIFTLMIFDECHNTSKQHPYNMIMFNYLDQKLGGSSGPLPQVIGLTASVGVGDAKNTDEALDYICKLCASLDASVIATVKHNLEELEQVVYKPQKFFRKVESRISDKFKYIIAQLMRDTESLAKRICKDLENLSQIQNREFGTQKYEQWIVTVQKACMVFQMPDKDEESRICKALFLYTSHLRKYNDALIISEHARMKDALDYLKDFFSNVRAAGFDEIEQDLTQRFEEKLQELESVSRDPSNENPKLEDLCFILQEEYHLNPETITILFVKTRALVDALKNWIEGNPKLSFLKPGILTGRGKTNQNTGMTLPAQKCILDAFKASGDHNILIATSVADEGIDIAQCNLVILYEYVGNVIKMIQTRGRGRARGSKCFLLTSNAGVIEKEQINMYKEKMMNDSILRLQTWDEAVFREKILHIQTHEKFIRDSQEKPKPVPDKENKKLLCRKCKALACYTADVRVIEECHYTVLGDAFKECFVSRPHPKPKQFSSFEKRAKIFCARQNCSHDWGIHVKYKTFEIPVIKIESFVVEDIATGVQTLYSKWKDFHFEKIPFDPAEMSK [DDX58] | -0.199 | 0.775 | 0.756 | -0.211 |  | 
MAGSPELVVLDPPWDKELAAGTESQALVSATPREDFRVRCTSKRAVTEMLQLCGRFVQKLGDALPEEIREPALRDAQWTFESAVQENISINGQAWQEASDNCFMDSDIKVLEDQFDEIIVDIATKRKQYPRKILECVIKTIKAKQEILKQYHPVVHPLDLKYDPDPAPHMENLKCRGETVAKEISEAMKSLPALIEQGEGFSQVLRMQPVIHLQRIHQEVFSSCHRKPDAKPENFITQIETTPTETASRKTSDMVLKRKQTKDCPQRKWYPLRPKKINLDT [NSL1] | -0.0661 |  |  | 0.0226 | 50.2 °C | 49.9 °C
MEGQSVEELLAKAEQDEAEKLQRITVHKELELQFDLGNLLASDRNPPTGLRCAGPTPEAELQALARDNTQLLINQLWQLPTERVEEAIVARLPEPTTRLPREKPLPRPRPLTRWQQFARLKGIRPKKKTNLVWDEVSGQWRRRWGYQRARDDTKEWLIEVPGNADPLEDQFAKRIQAKKERVAKNELNRLRNLARAHKMQLPSAAGLHPTGHQSKEELGRAMQVAKVSTASVGRFQERLPKEKVPRGSGKKRKFQPLFGDFAAEKKNQLELLRVMNSKKPQLDVTRATNKQMREEDQEEAAKRRKMSQKGKRKGGRQGPGGKRKGGPPSQGGKRKGGLGGKMNSGPPGLGGKRKGGQRPGGKRRK [RRS1] | 1.09 |  |  | -1.81 | 55.2 °C | 53 °C
MQAALEVTARYCGRELEQYGQCVAAKPESWQRDCHYLKMSIAQCTSSHPIIRQIRQACAQPFEAFEECLRQNEAAVGNCAEHMRRFLQCAEQVQPPRSPATVEAQPLPAS [CHCHD5] | 0.0671 |  |  | -0.11 | 53.5 °C | 50.5 °C
MAASRYRRFLKLCEEWPVDETKRGRDLGAYLRQRVAQAFREGENTQVAEPEACDQMYESLARLHSNYYKHKYPRPRDTSFSGLSLEEYKLILSTDTLEELKEIDKGMWKKLQEKFAPKGPEEDHKA [UQCC2] | 0.507 |  |  | 0.0537 | 45.6 °C | 
MASPAASSVRPPRPKKEPQTLVIPKNAAEEQKLKLERLMKNPDKAVPIPEKMSEWAPRPPPEFVRDVMGSSAGAGSGEFHVYRHLRRREYQRQDYMDAMAEKQKLDAEFQKRLEKNKIAAEEQTAKRRKKRQKLKEKKLLAKKMKLEQKKQEGPGQPKEQGSSSSAEASGTEEEEEVPSFTMGR [PRKRIP1] | 0.169 |  |  | 0.499 | 53.3 °C | 53.6 °C
MAQRLLLRRFLASVISRKPSQGQWPPLTSRALQTPQCSPGGLTVTPNPARTIYTTRISLTTFNIQDGPDFQDRVVNSETPVVVDFHAQWCGPCKILGPRLEKMVAKQHGKVVMAKVDIDDHTDLAIEYEVSAVPTVLAMKNGDVVDKFVGIKDEDQLEAFLKKLIG [TXN2] | 0.017 |  |  | 0.576 | 53.5 °C | 52.9 °C
MTSPEIASLSWGQMKVKGSNTTYKDCKVWPGGSRTWDWRETGTEHSPGVQPADVKEVVEKGVQTLVIGRGMSEALKVPSSTVEYLKKHGIDVRVLQTEQAVKEYNALVAQGVRVGGVFHSTC [AAMDC] | 0.0391 |  |  | 0.355 | 53.4 °C | 52.5 °C
MRRSAAPSQLQGNSFKKPKFIPPGRSNPGLNEEITKLNPDIKLFEGVAINNTFLPSQNDLRICSLNLPSEESTREINNRDNCSGKYCFEAPTLATLDPPHTVHSAPKEVAVSKEQEEKSDSLVKYFSVVWCKPSKKKHKKWEGDAVLIVKGKSFILKNLEGKDIGRGIGYKFKELEKIEEGQTLMICGKEIEVMGVISPDDFSSGRCFQLGGGSTAISHSSQVARKCFSNPFKSVCKPSSKENRQNDFQNCKPRHDPYTPNSLVMPRPDKNHQWVFNKNCFPLVDVVIDPYLVYHLRPHQKEGIIFLYECVMGMRMNGRCGAILADEMGLGKTLQCISLIWTLQCQGPYGGKPVIKKTLIVTPGSLVNNWKKEFQKWLGSERIKIFTVDQDHKVEEFIKSIFYSVLIISYEMLLRSLDQIKNIKFDLLICDEGHRLKNSAIKTTTALISLSCEKRIILTGTPIQNDLQEFFALIDFVNPGILGSLSSYRKIYEEPIILSREPSASEEEKELGERRAAELTCLTGLFILRRTQEIINKYLPPKIENVVFCRPGALQIELYRKLLNSQVVRFCLQGLLENSPHLICIGALKKLCNHPCLLFNSIKEKECSSTCDKNEEKSLYKGLLSVFPADYNPLLFTEKESGKLQVLSKLLAVIHELRPTEKVVLVSNYTQTLNILQEVCKRHGYAYTRLDGQTPISQRQQIVDGFNSQHSSFFIFLLSSKAGGVGLNLIGGSHLILYDIDWNPATDIQAMSRVWRDGQKYPVHIYRLLTTGTIEEKIYQRQISKQGLCGAVVDLTKTSEHIQFSVEELKNLFTLHESSDCVTHDLLDCECTGEEVHTGDSLEKFIVSRDCQLGPHHQKSNSLKPLSMSQLKQWKHFSGDHLNLTDPFLERITENVSFIFQNITTQATGT [RAD54B] | -0.0255 |  |  | -0.106 | 46.5 °C | 48.1 °C
